Values of other authors as cited in publication PMC4567495.

Experiments:
[1] = target: cardiac troponin I switch peptide (Homo sapiens) (UniProt P19429); assay: NMR
[2] = target: cardiac troponin I switch peptide 147-163 (Homo sapiens) (UniProt P19429); assay: NMR

cardiac troponin I switch peptide (Homo sapiens), sequence (P19429 2-210): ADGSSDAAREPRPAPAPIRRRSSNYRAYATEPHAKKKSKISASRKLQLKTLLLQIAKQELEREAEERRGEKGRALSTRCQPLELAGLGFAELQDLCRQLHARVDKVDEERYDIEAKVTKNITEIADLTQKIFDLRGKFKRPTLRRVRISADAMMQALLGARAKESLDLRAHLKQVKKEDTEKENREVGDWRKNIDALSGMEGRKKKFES

- Kd [1]: > 2 mM
- Kd [2]: 150 µM
Substance: cardiac troponin C N-domain (from UniProt P63316)
